# Test results from patent US20170226215A1 (SORRENTO THERAPEUTICS, published 2017).
# Changes are numbered by the printed parent chain.
# B1: anti-CD137 antibody MB3 (antibody, V domains shown)
# VH: QMQLVQSGAEVKKPGASVKVSCKASGYQMRGYYMHWVRQAPGQGLEWMGWINPNSGGTNYAQKFQGRVTITRDTSASTAYMELSSLRSEDTAVYYCAREGEAVGLDLDYWGQGTLVTVSS
# VL: SYELTQPPSVSVAPGKTARITCGGNNIGSKSVHWYQQKPGQAPVLVIYYDSDRPSGIPERFSGSNSGNTATLTISRVEAGDEADYYCQVWDSSSVVFGGGTQLTVL
# notes: IgG class, variant of D6
# B2: anti-CD137 antibody MSC8 (antibody, V domains shown)
# VH: B1 VH with Q28N, M29F, R30G, I51V, N54K
# VL: B1 VL
# notes: IgG class, variant of D6
# B3: anti-CD137 antibody MB12 (antibody, V domains shown)
# VH: B1 VH with Q28S, M29L, R30E
# VL: B1 VL
# notes: IgG class, variant of D6
# Biological target: T1, recombinant human CD137/Fc (human, UniProt Q07011 24-186)
# T1 construct: Coated on the ELISA plate at 2 µg/mL; not shown: Fc part
# Experiment: ELISA, plate coated with recombinant human CD137/Fc at 2 µg/mL, antibody at about 1 µg/mL (single concentration), HRP anti-human lambda, OD 450 nm
# Protocol: A Maxisorp plate was coated with recombinant human CD137/Fc or mouse CD137/Fc at 2 μg/mL at 4° C., overnight. The plate was blocked for 1 hour at room temperature, washed 3 times with PBS-Tween (PBST), then anti-CD137 antibodies (˜1 μg/mL) diluted in casein were added and incubated for 30 min with shaking. The plate was washed 3 times with PBST, horseradish peroxidase (HRP)-conjugated mouse anti-human Lambda (1:1000 in casein) was added, then 3,3′,5,5′-Tetramethylbenzidine (TMB) was added as substrate and developed about 5 min. 2M H₂SO₄ was used to stop the reaction and the OD was read at 450 nm.
row,binding result,Binder
1,binds,B1
2,binds,B2
3,binds,B3
